According to patent US20220281969A1 (ANTLERA THERAPEUTICS, published 2022):

Assays:
[1] = target: T1, recombinant mouse LRP5-His chimera (mouse, UniProt Q91VN0 31-1383); assay: single-point ELISA, IgG1 on coated antigen
T1 construct: extracellular domain; not shown: His tag
T1 sequence (looked up): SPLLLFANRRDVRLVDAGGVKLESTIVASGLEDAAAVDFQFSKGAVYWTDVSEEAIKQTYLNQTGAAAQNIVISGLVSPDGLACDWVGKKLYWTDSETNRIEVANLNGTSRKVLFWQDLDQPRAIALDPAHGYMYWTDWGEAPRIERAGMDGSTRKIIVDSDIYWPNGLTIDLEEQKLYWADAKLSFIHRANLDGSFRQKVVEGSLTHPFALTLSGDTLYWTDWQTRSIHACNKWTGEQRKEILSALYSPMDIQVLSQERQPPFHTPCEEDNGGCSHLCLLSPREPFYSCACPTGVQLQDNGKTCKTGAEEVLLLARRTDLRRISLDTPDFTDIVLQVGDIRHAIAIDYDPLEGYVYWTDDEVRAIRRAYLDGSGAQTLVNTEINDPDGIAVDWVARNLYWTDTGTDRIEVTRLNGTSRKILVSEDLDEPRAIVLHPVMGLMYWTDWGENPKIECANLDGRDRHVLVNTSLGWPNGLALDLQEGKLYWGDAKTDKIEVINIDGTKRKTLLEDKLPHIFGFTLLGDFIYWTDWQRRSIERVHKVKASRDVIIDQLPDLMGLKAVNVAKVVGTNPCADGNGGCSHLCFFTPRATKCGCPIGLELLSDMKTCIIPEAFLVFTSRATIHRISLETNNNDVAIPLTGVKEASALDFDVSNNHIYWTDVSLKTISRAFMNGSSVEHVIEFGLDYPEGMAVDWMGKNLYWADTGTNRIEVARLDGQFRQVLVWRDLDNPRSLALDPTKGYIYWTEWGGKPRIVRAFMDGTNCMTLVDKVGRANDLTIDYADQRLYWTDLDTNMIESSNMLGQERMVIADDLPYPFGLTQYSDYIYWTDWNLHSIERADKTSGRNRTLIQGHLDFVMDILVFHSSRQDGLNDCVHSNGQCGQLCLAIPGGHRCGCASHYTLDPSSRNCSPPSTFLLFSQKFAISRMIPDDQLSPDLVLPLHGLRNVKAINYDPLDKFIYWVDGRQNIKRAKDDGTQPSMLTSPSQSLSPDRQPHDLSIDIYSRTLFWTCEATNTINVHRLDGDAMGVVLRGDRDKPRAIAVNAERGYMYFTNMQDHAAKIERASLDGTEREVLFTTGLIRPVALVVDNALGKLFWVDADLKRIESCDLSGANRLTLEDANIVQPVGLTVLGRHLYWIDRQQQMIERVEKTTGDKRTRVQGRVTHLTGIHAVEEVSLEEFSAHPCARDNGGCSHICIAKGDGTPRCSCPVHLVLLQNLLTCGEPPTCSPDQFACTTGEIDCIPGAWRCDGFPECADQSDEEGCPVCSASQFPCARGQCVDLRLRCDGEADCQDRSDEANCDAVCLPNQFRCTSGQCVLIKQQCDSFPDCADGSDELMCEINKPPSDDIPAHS
Method: (§1) FIGS. 1a and 1b show LRP six antibodies. (A) The amino acid sequences of the complementarity determining regions (CDR) of the heavy (H) and the light (L) chains are presented. The antibodies were grouped into unique epitopes as determined by competitive ELISAs. (B) Single-point ELISAs were performed on 96-well Maxisorb immune plates coated with the […] of mouse LRP5, mouse LRP6 and human LRP6 chimeras. The plates were incubated with the purified Fab or IgG1 at the concentrations indicated followed by incubation with horseradish peroxidase (HRP)-conjugated anti-kappa antibody. The wells were washed eight times followed by incubation with 3,3′,5,5′-tetramethylbenzidine/H₂O₂ peroxidase (TMB) substrate for 5-10 min. The reaction was stopped by adding one M H₃PO₄ and the absorbance was measured spectrometrically at 450 nm in a microtiter plate reader.
(§2) The full length IgG1s were purified and a single-point ELISA was done to determine the specificity of the antibodies. […] A multipoint competitive ELISA was used to determine the relative affinities of the antibodies to the recombinant antigen.

[2] = target: T2, recombinant mouse LRP6His chimera (mouse, UniProt O88572 20-1370); assay: single-point ELISA, IgG1 on coated antigen
T2 construct: extracellular domain; not shown: His tag
T2 sequence (looked up): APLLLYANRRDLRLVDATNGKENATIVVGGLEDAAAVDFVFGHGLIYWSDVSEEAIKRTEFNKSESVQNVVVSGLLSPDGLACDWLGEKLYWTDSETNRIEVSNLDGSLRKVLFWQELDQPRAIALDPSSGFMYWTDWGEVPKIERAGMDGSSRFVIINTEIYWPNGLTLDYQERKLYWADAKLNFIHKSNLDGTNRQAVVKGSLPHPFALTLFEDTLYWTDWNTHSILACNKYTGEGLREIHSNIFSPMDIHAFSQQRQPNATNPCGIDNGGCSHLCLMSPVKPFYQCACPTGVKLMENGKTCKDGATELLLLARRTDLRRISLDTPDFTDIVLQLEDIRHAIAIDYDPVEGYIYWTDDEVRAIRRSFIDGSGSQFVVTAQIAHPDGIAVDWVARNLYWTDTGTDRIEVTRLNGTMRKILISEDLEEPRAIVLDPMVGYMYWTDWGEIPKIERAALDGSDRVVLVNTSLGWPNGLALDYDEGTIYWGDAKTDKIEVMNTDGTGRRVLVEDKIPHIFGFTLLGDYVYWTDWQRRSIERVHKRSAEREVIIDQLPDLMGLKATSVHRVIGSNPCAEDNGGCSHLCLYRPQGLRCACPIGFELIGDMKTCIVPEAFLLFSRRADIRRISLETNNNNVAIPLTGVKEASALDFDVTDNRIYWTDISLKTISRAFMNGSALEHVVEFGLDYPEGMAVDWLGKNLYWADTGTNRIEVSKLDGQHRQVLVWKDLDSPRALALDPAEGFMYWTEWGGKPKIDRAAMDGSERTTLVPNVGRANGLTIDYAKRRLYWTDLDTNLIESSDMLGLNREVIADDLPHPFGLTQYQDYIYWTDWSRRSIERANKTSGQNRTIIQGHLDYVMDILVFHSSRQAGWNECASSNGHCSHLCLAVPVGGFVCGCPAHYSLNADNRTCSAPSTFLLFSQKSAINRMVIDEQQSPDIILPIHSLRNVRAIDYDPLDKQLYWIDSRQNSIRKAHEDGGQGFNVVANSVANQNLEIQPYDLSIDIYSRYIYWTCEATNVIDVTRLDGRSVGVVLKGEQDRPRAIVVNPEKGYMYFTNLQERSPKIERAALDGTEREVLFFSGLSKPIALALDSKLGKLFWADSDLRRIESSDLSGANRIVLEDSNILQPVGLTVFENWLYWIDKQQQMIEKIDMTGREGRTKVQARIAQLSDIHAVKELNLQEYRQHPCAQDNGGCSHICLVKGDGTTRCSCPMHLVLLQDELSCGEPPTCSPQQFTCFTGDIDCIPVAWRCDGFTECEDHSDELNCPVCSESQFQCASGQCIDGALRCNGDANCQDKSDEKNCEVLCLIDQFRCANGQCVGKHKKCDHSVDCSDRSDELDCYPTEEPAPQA
Method: as §1, §2

binding result [1]: no binding
binding result [2]: no binding
B1: LRP6-E3 IgG1 antibody (antibody, V domains shown)
VH: EVQLVESGGGLVQPGGSLRLSCAASGFNLYYYSMHWVRQAPGKGLEWVASIYSSYGYTYYADSVKGRFTISADTSKNTAYLQMNSLRAEDTAVYYCARYAGYYYYPWAYYGWPFSGLDYWGQGTLVTVSS
VL: DIQMTQSPSSLSASVGDRVTITCRASQSVSSAVAWYQQKPGKAPKLLIYSASSLYSGVPSRFSGSRSGTDFTLTISSLQPEDFATYYCQQAGSAPYHLITFGQGTKVEIKR
notes: Tested as purified full length IgG1
